Molecular target: recombinant human tau, largest isoform (2N4R)

B1: casein kinase 1 (CK1) (protein)
chain: MELRVGNRYRLGRKIGSGSFGDIYLGTDIAAGEEVAIKLECVKTKHPQLHIESKIYKMMQGGVGIPTIRWCGAEGDYNVMVMELLGPSLEDLFNFCSRKFSLKTVLLLADQMISRIEYIHSKNFIHRDVKPDNFLMGLGKKGNLVYIIDFGLAKKYRDARTHQHIPYRENKNLTGTARYASINTHLGIEQSRRDDLESLGYVLMYFNLGSLPWQGLKAATKRQKYERISEKKMSTPIEVLCKGYPSEFATYLNFCRSLRFDDKPDYSYLRQLFRNLFHRQGFSYDYVFDWNMLKFGASRAADDAERERRDREERLRH
New sites identified in recombinant tau (phosphorylated residues, numbered on 441-residue human tau): (46/50), 113, 131, 149, 169, 184, 208, (210, 212), 214, 237, 238, 241, 258, 262, 263, 285, 289, 305, 341, 352, 356, 361, 373, 386, (412/413/414/416, 2 sites), 416, 433, 435
in vitro phosphorylation of recombinant tau, sites identified by LC/MS/MS: CK1 found 28 new sites making a total of 30 sites in all.

Source: patent US8822171
